Experimental data reported in the RNAGym collection of RNA variant scans (doi:10.1073/pnas.2313332121).

B1: TPR t1 (parent)
chain: GACCAAUCUGCCCUCAGAGCUCGAGAACAUCUUCGGAUGCAGAGGAGGCAGGCUUCGGUGGCGCGAUAGCGCCAACGUCCUCAACCUCCAAUGCAUCCCACCACAUGAUGAUGCCUGAAGAGCCUUGGUUUUUUG

Variants of: B1
Assay: polymerase ribozyme fitness, log enrichment relative to wild type (log ratio); higher = more active; in vitro selection for triplet polymerase activity
In short: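 For each subunit of a heterodimeric triplet polymerase ribozyme, a mutant library was built by PCR and transcribed, then taken through a single in vitro selection round in triplicate. Selection involved annealing to a biotinylated primer, the partner subunit and triplets, incubation frozen at −7 °C, gel excision of extended constructs, capture on streptavidin beads and RT-PCR. Genotypes were retained after Illumina sequencing of inputs and outputs only with ≥10 input reads and ≥1 read in each output. Fitness is defined as the logarithm of a genotype's enrichment relative to wild-type enrichment, using inverse-variance-weighted averages across replicates, with the logarithm taken to base 2.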

Point of comparison: C3U G17C G117U, “polymerase ribozyme fitness (log ratio)” value -6.24. Against it:
- G47C A108G U112A U133A — higher, -5.17
- C56A G71A U78G G128C U129A — higher, -4.83
- A5C A24G A27G — higher, -4.69
- A6C G36U G51A U109C C115U — within 0.2 log units, -6.39
- C4G A5C G61U A84C U109A U131G — higher, -5.51
- C3U G120A — higher, 0.234
- A46G A90C C99U U106C — higher, -4.81
- C11G C40U C53U U87A A90U U112A G127C — higher, -2.43
- G39A G42A A46G G58A — higher, -2.47
- C20U G52A G60A — higher, -2.6
- G61C G77U U112A — higher, -2.37
- G45U C64U A121G — higher, -0.662
- C80U G117C — higher, -3.58
- G44A A50U G60U U132C — higher, -2.38
- C8U U32A G60C C97A C99A G122U — higher, -5.09
- G51A C62U C124U — higher, -1.17
- C62A C115U — higher, -2.53
- C8G C20U U32G C56G G113A U125G — higher, -3.85
- A95G C97U A105U G122U — higher, -4.71
- C11G C49U G120C — higher, 1.52
- C97A C123G — higher, -3.19
- A6U A16U A46C C56G — higher, -2.72
- C8G C12U G63A G122A C123U — higher, 0.85
- C8G G71U — higher, 0.189
- A16U G113U — higher, -4.23
- C22U C72G C82A — higher, -5
- C40G G52A A118U — higher, -0.83
- G42C G63U C123U U133A — higher, -1.98
- C20A C53U — higher, -2.46
- C4A C8A A37U C56A — higher, -1.7
- C20G G122A — higher, -4
- U7G G51C U55C — higher, -2.32
- G10A C79A C123U — higher, 1.23
- A6U G45U G52C C72U G122A — higher, -2.56
- C12G G51A — higher, -2.1
- C12A G58A G61C C79U C82A A83C C114U — higher, -5.31
- A37U C123U — higher, 0.6
- C11U A27U — higher, -1.89
- G71C A74G A91C G93C C99G A105U A111G — lower, -6.99
- G48C G93A A105C — higher, -4.64
- A50U U112A — higher, -0.102
- G10A C72G G77C A95G C101G — higher, -3.03
- G17U C40G A90G A95U C115G — higher, -3.65
- G23A C79A G110C U125G — lower, -6.79
- U9G G19U G45U C114A — higher, 1.58
- A27U C53A C56A U131G — higher, -2.89
- G36A U55G G120C — higher, 0.249
- A27G A46G C89G — higher, -4.52
- G19A C64U — higher, -2.88
- A5G A95U A121C G128A U130C — higher, -0.519
- U9C C79U — higher, 0.385
- C76G — higher, -0.207
- G61A G63A — higher, -4.85
- A5U G63C G117A — higher, -3.54
- C49A G71A G77C — higher, -1.63
- C3G C124A — higher, -0.505
- C12A G17C G48C — lower, -6.47
- U9C C49A C86U C94A G113A — higher, -1.52
- C8U C22U A119U — higher, -2.76
- C124G U125A U134C — higher, 0.622
- C72A A83C U96A G110A — higher, -2.24
- G42C C49U — higher, -2.21
- C11G C13U C101G — higher, -1.63
- G39U U109G — higher, -5.73
- C20G C82A — higher, -4.78
- C88A C124A — higher, 0.767
- G69U C89U — higher, -0.148
- C34A C97G — higher, -4.18
- G69C C70G C82A — higher, -4.81
- U59A C64U C82G — higher, -0.95
- U78A C79A A95C — higher, -4.32
- G39C A66U A75G C88G C123U — higher, -3.46
- U7C A27U C79U — higher, -3.22
- A29U G52U U106C G117A A118U C124G — higher, -1.91
- U55G C102A G110A U130A — lower, -6.51
- U54G C88A A105U — higher, -2.56
- U55C C56U — higher, 0.598
- A2G U59G G122A U129C — higher, -0.941
- G71U C99U — higher, -4.69
- A24G G51A U78C — higher, -6.04
- C22U C72A — higher, -3.91
- C76A C115U U129A — higher, -4.13
- G10A G69U G93A G110A A121U U132C — higher, 0.47
- U9A C22A — higher, -4.76
- A5U A29U — higher, -1.95
- C64U A75U G93A — higher, -0.503
- A43U A50U G60A U112A — higher, -4.39
- C72G C88U U92A — higher, -3.52
- C98A C115U C123U — lower, -7.67
- C76G C85A U132C — higher, -0.689
- C79U G135U — higher, -0.964
- C3A A18G G19C A90U C123U U129G — higher, -0.538
- C56A C73G — higher, -2.34
- C123A U126A U130G U133G — higher, 0.742
- A5C C12G U14A G63U — higher, -2.95
- A2U U32G G60U G69A U92A C114A U116A C124G — within 0.2 log units, -6.22
- C3U C12A G61C A84C U130C U133G — higher, -2.37
- A2C C12G G69C G110U G128C — higher, -5.29
- G39A C64U C98G A103C A111G — lower, -7.64
- A43G G69C A90C C124G — higher, -0.889
- C11A A121C — higher, 1.02
- A26U C56A U59C — higher, -4.4
- G48U G63U C86U — higher, -1.38
- A16G A50U U81G — higher, -2.01
- C22G C82U — higher, -3.57
- A2G G44C C62A C97U C115U G135A — higher, -5.32
- C49G C115G — higher, -2.98
- C70U U130A — higher, -1.04
- G63A C115U — higher, -1.45
- C13G G61C — higher, -2.94
- C20U A41C U116C — higher, -4.23
- U9C G10C G17A G63A U81C U92A C94U U109G A119G — lower, -7.69
- U9C A41C C53G — higher, -0.677
- C73G C97G C114A A121G — higher, -5.74
- U55A C73A C104A A118G G122U — higher, -1.07
- G69U C94U U112C — higher, 1.42
- A37U U106G C123G — higher, 0.0565
- U9C C49A C85U G120C — higher, 1.08
- C70G U78G — higher, -2.07
- G51U U78C — higher, -4.43
- C49G C56G — higher, -2.98
- A2G C4G C8G G47U U54C C72A — higher, -2.53
- C13U G45A — higher, -0.438
- A5C C62U C85U C123A — higher, -1.09
- G63A A83G U106A — higher, -3.25
- C8G G69U — higher, 0.724
- C13U G113A — higher, 0.0113
- C53U C79G — higher, -1.2
- U9C G117A — higher, 0.892
- U54G G57U G120A — higher, 0.132
- C12G C22U — higher, -3.18
- C40G G69C — higher, -2.54
- C8G C98G U132C — higher, -4.39
- U9C C11U G47C U96G — higher, -3.05
- C40U A43G G61A G71U C124A — higher, -4.58
- A27U A83U C86U U129C — higher, -3.64
- A5U U54C G60A U112C — higher, 1.52
- G45U C114U A121U — higher, -1.71
- G17U C124A — higher, -1.01
- A37C G93A — higher, -0.971
- C13G C79A G113A — higher, -3.53
- C13U C15U U59A A84C A90C U106G U130A — higher, -4.77
- C8A C22G G61U A121U — higher, -1.38
- G117A — higher, -1.1
- G35U G63U C72U — lower, -7.14
- A6U C15G U33A G63A G93A G113U — within 0.2 log units, -6.39
- G77A C79U — higher, 0.354
- G48A G61U C64U A84U — higher, -3.63
- C73U A103G — higher, -4.17
- U9C G69U G71U U92A — higher, -3.04
- C101G U106A G122A — higher, -0.277
- C11A G17A C124A G128A — higher, -5.02
- G42U C94U U126A U129G — higher, -5.24
- C53U C72A A91G U132A — higher, 0.186
- C80A U112A — higher, -2.64
- C40A A118U G120U — higher, -1.37
- C22U A41C G60A C99U G110A U129G — lower, -6.8
- G10U G47C G51A C53G C56U — higher, -2.84
- U9G A95C — higher, -1.41
- U55G G69A U112C G120C — higher, -2.49
- C53U G69U — higher, 0.587
- U38G G39A C72A U81A U112A — higher, -2.71
- C13G G47A — higher, -2.67
- C28U C72G U78A — higher, -2.79
- G36C G69U A91U C94A G113C — higher, -3.07
- C8U G57U U78A C104A — higher, -1.43
